Tests used:
[1] = target: T1, human CD3 (human, UniProt P07766 23-207; P09693 23-182; P04234 22-171); experiment: flow cytometry, hybridoma supernatant on CD3+ Jurkat cells
T1 construct: whole, on cells; also called CD3 on Jurkat T cells; CD3 on primary human T cells
In short: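 Hybridoma supernatants stained onto CD3+ Jurkat T-cells and analysed by flow cytometry; specific binding taken as mean fluorescence intensity increase over CD3-negative J.RT3-T3.5 cells. Mouse IgG and anti-GFP supernatant served as negative controls, AF488-labelled OKT3 as positive control.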

[2] = target: T1, human CD3; experiment: apparent KD (KDapp), flow cytometry titration on purified primary human T cells
In short: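 Freshly isolated human T cells from PBMCs (negative pan-T selection), 1×10⁵ per test, stained 2 h at 4 °C with eight-point mAb dilutions from 300 or 100 nM, then APC anti-mouse IgG secondary 30 min. Background-subtracted flow MFI fitted by one-site specific binding with Hill slope for KDapp.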

[3] = target: T1, human CD3; experiment: flow competition on Jurkat, 100 nM unlabeled mAb; competitor AF488-UCHT1 5 nM
In short: (§1)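 Jurkat cells incubated with a fixed concentration of AF488-labeled anti-CD3 mAb plus 100 nM unlabeled mAb, with competition read by flow cytometry as impaired labeled-mAb binding. In-house AF488-OKT3 mIgG2b was desalted and checked for integrity by UPLC-SEC.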

[4] = target: T1, human CD3; experiment: cell-based or functional assay
[5] = target: T1, human CD3; experiment: flow competition on Jurkat, 100 nM unlabeled mAb; competitor AF488-OKT-3 mIgG2b 1.5 nM
In short: as §1

[6] = target: T1, human CD3; experiment: cell-based or functional assay; remark: listed apart in the source
[7] = target: T1, human CD3; experiment: flow competition on Jurkat, 100 nM unlabeled mAb; competitor AF488-SP34.2 20 nM
In short: as §1

[8] = target: T1, human CD3; experiment: apparent KD (KDapp), flow cytometry titration on Jurkat cells
In short: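 Jurkat cells incubated 2 h on ice with 1/3 serial dilutions of purified mouse mAbs from 300 nM, then FITC anti-mouse Fc F(ab′)2 for 1 h. Binding read by flow cytometry on 2,000 viable single cells, with propidium iodide exclusion.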

[9] = target: T1, human CD3; experiment: flow competition on Jurkat, 100 nM unlabeled mAb; competitor AF488-SK7 1.5 nM
In short: as §1

MFI [1] [MFI]	Kd [2] [nM]	% residual fluorescence of labeled mAb [3] [%]	IC50, indirect ADC surrogate growth inhibition (anti-mouse-DM1) on Jurkat cells [4] [nM]	Span, indirect ADC surrogate growth inhibition on Jurkat cells [4] [%]	% residual fluorescence of labeled mAb [5] [%]	% max ref. OKT3 (dTomato activation) [6] [%]	EC50 of dTomato induction (CD69 promoter), Jurkat-CD69-dTomato cells, 24 h [6] [µg/mL]	% residual fluorescence of labeled mAb [7] [%]	Kd [8] [nM]	% residual fluorescence of labeled mAb [9] [%]	Binder
292	0.37	74	0.173	95	90	98	0.19	9	0.4	49	F332-5F2 (antibody, mouse IgG2b, V domains shown, also called F332-5F2-2; F332-5F2 (6G8, 13A3)) VH: QVQLQQPGAELGKPGTSVKLSCKASGYTFTSYWMHWVKQRPGQGLEWIGNINPNGGDSNYNEKFKSKATLTVDKSSSTAYMQLSTLTSEDSAVYYCTRDISGQYYFDFWGQGTSLTVFS VL: DILMSQSPSSLAVSAGEQVTMSCKSSQSLLNSRTRKNYLAWYQQKPGQSPKLLIFWASTRKSGVPDRFTGSGSGTYFTLTISSVQAEDLAVYYCTQSYNLRTFGGGTKLEIK
334	0.41	64	0.062	95	79	102	0.23	7	0.6	39	F332-7C5 (antibody, mouse IgG2a, V domains shown, also called F332-7C5-2; F332-7C5 (5E12, 10A8)) VH: QVQLQQPGAELGKPGTSVKLSCKASGYTFTSYWMHWVKQRPGQGLEWIGNINPSSGITNYNERFKNKATLTVDKSSTTAYMQLSILTSEDSAVYYCSRDISGQYYFNFWGQGTTLTVSS VL: DIVMSQSPSSLAVSAGEKVTMSCKSSQSLLNSRTRKNYLAWYQQKPGQSPKLLIYWASTRESGVPDRFTGTGSGTDFTLTISSVQAEDLAVYYCKQSYNLRTFGGGTKLEIK
285	0.16	68	0.045	96	82	91	0.24	9	0.5	42	F332-7C9 (antibody, mouse IgG2a, V domains shown, also called F332-7C9-2; F332-7C9 (5C7, 7D10)) VH: QVQLQQSGPELVKPGASVRISCKASGYTFTSHYLHWVKQRPGQGFEWIGWIYPGDGNTRYNEKFKDRATLTADKSSSTAYLHLSSLTSEDSAVYFCARDAGYYFDYWGQGTTLAVSS VL: DIVMSQSPSSLAVSAGEKVTMSCKSSQSLLNSRTRKNYLAWYQQKPGQSLKVLIYWASTRESGVPDRFTGSGSGTDFTLTISSVQAEDLAVYYCKQSYSLRTFGGGTKLEIK

Reference: US20250051443A1 (NATIONAL RESEARCH COUNCIL OF CANADA, published 2025)
